Target: H1 HA (recombinant HA of Figure 4E) (Influenza A virus, H1 subtype; strain …, UniProt A0A1J0CXU0)
Test: BLI

B1: 789-203-3C12 AA variant mAb (Cys33Ala/Cys52Ala heavy chain with the 789-203-3C12 light chain), IgG (antibody, V domains shown)
VH: QVQLQESGPGLVKPSEILSLTCAVSGGSFSSYAWGWIRQPPGKGLEWIGSIAGSGGSNYLNPSLKSRVTLSVDTSKNQFSLILNSVTAADTAVYYCAREGITIFGVVIPRVLDSWGQGAVVTVSS
VL: DIQMTQSPSSLSASVGDTVTITCRASQSISSWLAWYQQKPGKAPNLLIYRASTLQSGVPSRFSGSGSGTDFTLTISSLQSEDFATYFCQQSTSSPFTFGPGTKLDIK
Q: Does B1 bind?
A: Result: binds

From PMC9772109 (Immunity, 2022)
